Results as given in patent US20200384107A1.

Biological target: CD40 (as in Table 2, species and form not stated)
Assay: binding kinetics, method not stated

Kd: 10.2 nM
koff: 1.54e-05 s⁻¹
kon: 1510 M⁻¹ s⁻¹
Substance: 5D12 (anti-CD40 antibody)
